From patent US12383572B2, “Administration of an anti-activin-a compound to a subject” (AMGEN INC., priority 2013, dated 2025)

What was measured:
[1] = target: T1, activin-A (Mus musculus, UniProt Q04998); assay: Serum activin-A ELISA in inh-KO mice with established gonadal tumors; type: in vivo; conditions: single injection 30 mg/kg SC
T1 construct: from tissue; host or cells: serum of inhibin-α knockout (inh-KO) and wild-type mice
T1 sequence (Q04998 309-424): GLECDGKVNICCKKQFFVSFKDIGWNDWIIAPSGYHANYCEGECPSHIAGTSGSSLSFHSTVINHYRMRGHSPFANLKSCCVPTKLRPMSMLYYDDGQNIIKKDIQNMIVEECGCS
Method: Inh-KO mice. 12-week-old female and 8-week-old male inh-KO mice with fully established ovarian or testicular tumors received a single injection of PBS or sActRIIB (30 mg/kg, SC). As a control, age-matched wild-type littermates received a single injection of PBS. Ovarian and testicular organ weights were determined by necropsy 14 days after the injection. All serum samples from ovarian cancer patients and healthy subjects were collected under informed consent and were purchased from Bioreclamation, Inc. The serum samples were diluted in buffer (DY995, R & D Systems) and pretreated overnight at 4° C. with 4 M urea (Sigma) to dissociate any protein bound to activin-A. The samples were then transferred to 96 well plates pre-coated with an activin-A monoclonal antibody. After 2 hr incubation at room temperature and a washing step (0.05% Tween 20 in DPBS), a biotin-labeled activin-A monoclonal antibody was added for 1 hr at room temperature. […] An acidic stopping solution (KPL) was added and the degree of enzymatic turnover of the substrate was determined by wavelength absorbance measurement at 450 nm. The absorbance measured is directly proportional to the concentration of activin-A present. A standard curve of absorbance versus activin-A concentration was used to determine the amount of Activin-A in the test sample. Serum activin-A levels in inh-KO mice were measured by using ELISA.

[2] = system: activin-A (βA) mRNA; assay: Northern blot of activin-A (βA) mRNA in inh-KO tumors; type: in vivo, mouse; conditions: inh-KO mice, increase vs WT controls
Method: (§1) Total RNA was isolated from individual tissue samples after homogenization in Trizol (Invitrogen). A pool of 10 μg RNA for each group containing equal amounts of total RNA isolated from individual animals was subjected to Northern blot analysis. The northern probes used for βA and Ang-2 were generated by using RT-PCR (Phusion, Biolabs). βA primer set: 5′-CCCTTGCTTTGGCTGAGAGGA-3′ (SEQ ID NO: 294) and 5′-TC ACA GGT CGT CGT AGG TCG-3′ (SEQ ID NO: 295); Ang-2 primer set: 5′-TGT GCC GGG GAG AAG AG (SEQ ID NO: 296) and 5′-TACAGTAGTGGGTTGAGGTTC-3′ (SEQ ID NO: 297). To normalize the expression, northern blot membranes were re-probed with β-actin.

[3] = system: Smad2 signaling; assay: Western blot of phospho-Smad2 in inh-KO tumors; type: in vivo, mouse; conditions: inh-KO mice, increase vs WT controls
Method: Protein extracts were prepared from cell cultures or tissues in T-PER tissue protein extraction reagent (Pierce) containing a mixture of protease inhibitors (Roche). A pool of 50 μg total protein for each group containing equal amounts of protein extract isolated from individual animals was separated by NuPAGE 4-12% Bis-Tris gel (Invitrogen) and transferred to PVDF. The membranes were probed with primary antibodies against total Smad2, p-Smad2 or E-cadherin (1:1000; Cell Signaling), endoglin, osteopontin (1:500; R & D Systems), IGFBP-1, IGFBP-2 (1:500; Abcam) followed by HRP-conjugated secondary antibody (1:2000; Cell Signaling). The membranes were stripped and re-probed with antibody against α-tubulin (1:1000; Cell Signaling).

[4] = system: Ang-2 mRNA; assay: Northern blot of Ang-2 mRNA in inh-KO tumors; type: in vivo, mouse; conditions: ovarian and testicular tumors, inh-KO mice
Method: as §1

[5] = TOV-21G xenograft, hu-sActRIIB-Fc alone or with 5-FU: body weight; type: in vivo, mouse; conditions: TOV-21G tumor-bearing athymic nude mice
Method: In another experiment, athymic nude mice received TOV-21G xenografts in the abdominal flank. After 14 days, subcutaneous hu-sActRIIB-Fc was administered weekly alone or in combination with 5-FU.

[6] = system: TOV-21G cancer cells; assay: In vitro proliferation assay (IncuCyte live cell imaging); type: cell-based, human; conditions: increasing concentrations
Method: In vitro growth rates of TOV-21G cancer cells were analyzed by using a real-time live cell imaging system (IncuCyte) following the manufacturer's recommended protocol.

[7] = sActRIIB single dose, withdrawal and re-administration in female Inhα KO mice: body weight; type: in vivo, mouse
Method: Eleven-to-fourteen-week-old female Inhα KO mice with body weight from 19.41 to 26.82 grams were subcutaneously (SC) injected with either 30 mg/kg sActRIIB or PBS. Age-matched WT littermate control mice were injected with PBS and served as baseline controls. The study ended by necropsy 2 weeks after injections. Two cohorts of mice were used in the study. Eleven-to-thirteen-week-old female Inhα KO mice with body weight from 17.7 to 27.4 grams were SC injected with either 30 mg/kg sAcLRIIB or PBS. Age-matched WT littermate control mice were injected with PBS and served as baseline controls. The withdrawal lasted for 8 weeks. At the end of the withdrawal, the sActRIIB treated mice were divided by balanced body weight into 2 groups (Group 3 and Group 4).
Group 2 and Group 3 were euthanized to examine the ovarian tumors. Group 4 received another dose of 30 mg/kg sActRIIB and the mice were euthanized together with the WT mice 4 weeks later (total 12 weeks). Mouse body weights were recorded once per week up to 12 weeks. For necropsy, mice were euthanized in a CO2 chamber. Normal ovaries in WT mice and ovarian tumors in Inhα KO mice were collected and weighed. All results were expressed as the mean±standard error of the mean (SEM). Statistical significance of difference between groups was analyzed using Student's 2-tailed t-test on MS Excel 5.0 software. […]

B1: sActRIIB: extracellular domain of human activin type-2B receptor fused to IgG2 Fc; full length SEQ ID NO: 21 (Table 9) (protein, listed as Homo sapiens)
chain: ETRWCIYYNANWELERTNQSGLERCEGEQDKRLHCYASWRNSSGTIELVKKGCWLDDFNCYDRQECVATEENPQVYFCCCEGNFCNERFTHLPEAGGPEVTYEPPPTAPTGGGGSVECPPCPAPPVAGPSVFLFPPKPKDTLMISRTPEVTCVVVDVSHEDPEVQFNWYVDGVEVHNAKTKPREEQFNSTFRVVSVLTVVHQDWLNGKEYKCKVSNKGLPAPIEKTISKTKGQPREPQVYTLPPSREEMTKNQVSLTCLVKGFYPSDIAVEWESNGQPENNYKTTPPMLDSDGSFFLYSKLTVDKSRWQQGNVFSCSVMHEALHNHYTQKSLSLSPGK
duration of activin-A-neutralizing effect [1]: persisted throughout the 14-day study period
serum activin-A levels ([1]; within one day after administration): reduced the elevated activin-A in the inh-KO mice to normal control levels
levels of βA transcripts in the tumors [2]: completely blocked
phospho-Smad2 in the tumor tissues [3]: eliminated this increase in phospho-Smad2
Ang-2 mRNA expression in tumors [4]: inhibited its overexpression
body weight increase during the experiment [5]: 26%
TOV-21G cell proliferation in vitro [6]: no direct effect on TOV-21G cell proliferation in vitro
body weight, first 4 weeks after single dose ([7]; 30 mg/kg SC single dose): sustained weight gain in Inhα KO mice that exceeded the level of WT littermate control
body weight after re-administration at week 8 (up to week 12) ([7]; second single dose 30 mg/kg): stimulated further weight gain
